Patent publication US20070105771A1 (Y S THERAPEUTICS, published 2007)
Where “and” joins values, the source holds several entries; their conditions need not be identical. Equal values may be shown once.

Key:
[1] = molecular target: T1, human CD26-derived 13 mer peptide 44 (human); experiment: peptide microarray
T1 peptide: IYDLNKRQLITEE
Procedure: (§1) The overnight incubation was followed by three washings with each of PBS buffer pH 7.5 and water. The microarrays were then scanned using ArrayWorx-Microarray Scanner.
(§2) The SPOT recognition software package ArrayPro was used for data analysis. The mean of signal intensities from 3 identical subarrays on each microarray image was used for data evaluation.

[2] = molecular target: T2, human CD26-derived 13 mer peptide 119 (human); experiment: peptide microarray
T2 peptide: SIQITAPASMLIG
Procedure: as §1, §2

[3] = molecular target: T3, human CD26-derived 13 mer peptide 87 (human); experiment: peptide microarray
T3 peptide: GTFLAYAQFNDTE
Procedure: as §1, §2

[4] = molecular target: T4, human CD26-derived 13 mer peptide 21 (human); experiment: peptide microarray
T4 peptide: VFLENSTFDEFGH
Procedure: as §1, §2

[5] = molecular target: T5, human CD26-derived 13 mer peptide 120 (human); experiment: peptide microarray
T5 peptide: QITAPASMLIGDH
Procedure: as §1, §2

[6] = molecular target: T6, human CD26-derived 13 mer peptide 110 (human); experiment: peptide microarray
T6 peptide: VKFFVVNTDSLSS
Procedure: as §1, §2

[7] = molecular target: T7, human CD26-derived 13 mer peptide 19 (human); experiment: peptide microarray
T7 peptide: GNSSVFLENSTFD
Procedure: as §1, §2

[8] = molecular target: T8, human CD26-derived 13 mer peptide 14 (human); experiment: peptide microarray
T8 peptide: NNILVFNAEYGNS
Procedure: as §1, §2

[9] = molecular target: T9, human CD26-derived 13 mer peptide 9 (human); experiment: peptide microarray
T9 peptide: SDHEYLYKQENNI
Procedure: as §1, §2

[10] = molecular target: T10, human CD26-derived 13 mer peptide 16 (human); experiment: peptide microarray
T10 peptide: VFNAEYGNSSVFL
Procedure: as §1, §2

[11] = molecular target: T11, human CD26-derived 13 mer peptide 116 (human); experiment: peptide microarray
T11 peptide: SVTNATSIQITAP
Procedure: as §1, §2

[12] = molecular target: T12, human CD26-derived 13 mer peptide 103 (human); experiment: peptide microarray
T12 peptide: VRVPYPKAGAVNP
Procedure: as §1, §2

[13] = molecular target: T13, human CD26-derived 13 mer peptide 24 (human); experiment: peptide microarray
T13 peptide: TFDEFGHSINDYS
Procedure: as §1, §2

[14] = molecular target: T14, human CD26-derived 13 mer peptide 22 (human); experiment: peptide microarray
T14 peptide: LENSTFDEFGHSI
Procedure: as §1, §2

[15] = molecular target: T15, human CD26-derived 13 mer peptide 114 (human); experiment: peptide microarray
T15 peptide: DSLSSVTNATSIQ
Procedure: as §1, §2

[16] = molecular target: T16, human CD26-derived 13 mer peptide 47 (human); experiment: peptide microarray
T16 peptide: RQLITEERIPNNT
Procedure: as §1, §2

[17] = molecular target: T17, human CD26-derived 13 mer peptide 23 (human); experiment: peptide microarray
T17 peptide: NSTFDEFGHSIND
Procedure: as §1, §2

[18] = molecular target: T18, human CD26-derived 13 mer peptide 105 (human); experiment: peptide microarray
T18 peptide: YPKAGAVNPTVKF
Procedure: as §1, §2

[19] = molecular target: T19, human CD26-derived 13 mer peptide 25 (human); experiment: peptide microarray
T19 peptide: DEFGHSINDYSIS
Procedure: as §1, §2

[20] = molecular target: T20, human CD26-derived 13 mer peptide 27 (human); experiment: peptide microarray
T20 peptide: HSINDYSISPDGQ
Procedure: as §1, §2

[21] = molecular target: T21, human CD26-derived 13 mer peptide 118 (human); experiment: peptide microarray
T21 peptide: ATSIQITAPASML
Procedure: as §1, §2

[22] = molecular target: T22, human CD26-derived 13 mer peptide 45 (human); experiment: peptide microarray
T22 peptide: DLNKRQLITEERI
Procedure: as §1, §2

[23] = molecular target: T23, human CD26-derived 13 mer peptide 111 (human); experiment: peptide microarray
T23 peptide: FFVVNTDSLSSVT
Procedure: as §1, §2

[24] = molecular target: T24, human CD26-derived 13 mer peptide 71 (human); experiment: peptide microarray
T24 peptide: TGKEDIIYNGITD
Procedure: as §1, §2

[25] = molecular target: T25, human CD26-derived 13 mer peptide 26 (human); experiment: peptide microarray
T25 peptide: FGHSINDYSISPD
Procedure: as §1, §2

[26] = molecular target: T26, human CD26-derived 13 mer peptide 18 (human); experiment: peptide microarray
T26 peptide: EYGNSSVFLENST
Procedure: as §1, §2

[27] = molecular target: T27, human CD26-derived 13 mer peptide 46 (human); experiment: peptide microarray
T27 construct: also called NKRQL1TEERIPN
T27 peptide: NKRQLITEERIPN
Procedure: as §1, §2

[28] = molecular target: T28, human CD26-derived 13 mer peptide 32 (human); experiment: peptide microarray
T28 peptide: DGQFILLEYNYVK
Procedure: as §1, §2

[29] = molecular target: human CD26 on the cell surface (human, UniProt P27487 1-766); experiment: cell-based or functional assay
Chain of human CD26 on the cell surface (P27487 whole entry): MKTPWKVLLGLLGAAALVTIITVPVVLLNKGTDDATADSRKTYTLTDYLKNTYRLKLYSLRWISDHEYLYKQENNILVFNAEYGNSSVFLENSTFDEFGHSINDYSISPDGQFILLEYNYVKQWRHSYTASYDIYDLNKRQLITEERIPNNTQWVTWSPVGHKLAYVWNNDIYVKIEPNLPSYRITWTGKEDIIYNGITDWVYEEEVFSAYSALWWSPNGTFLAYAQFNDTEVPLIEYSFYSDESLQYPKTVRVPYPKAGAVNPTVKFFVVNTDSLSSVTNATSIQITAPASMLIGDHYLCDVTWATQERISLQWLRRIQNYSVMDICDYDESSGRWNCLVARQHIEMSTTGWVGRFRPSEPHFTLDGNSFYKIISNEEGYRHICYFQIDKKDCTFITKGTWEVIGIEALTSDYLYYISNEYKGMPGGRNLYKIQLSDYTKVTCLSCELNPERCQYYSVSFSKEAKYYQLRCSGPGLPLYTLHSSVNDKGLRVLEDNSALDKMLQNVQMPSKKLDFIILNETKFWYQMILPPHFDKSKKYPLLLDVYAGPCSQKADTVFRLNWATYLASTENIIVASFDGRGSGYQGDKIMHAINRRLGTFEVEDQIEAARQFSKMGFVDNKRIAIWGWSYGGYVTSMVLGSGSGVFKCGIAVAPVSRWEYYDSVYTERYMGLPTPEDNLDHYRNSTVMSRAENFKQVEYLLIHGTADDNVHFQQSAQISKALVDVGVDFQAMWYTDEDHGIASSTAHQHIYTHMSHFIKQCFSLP

[30] = molecular target: T29, Purified recombinant human CD26 (rhDipeptidyl peptidase IV), R&D Systems CAT #1180-SE (human, UniProt P27487 29-766); experiment: SPR (Biacore), CD26 on CM5 chip, Fab injected
T29 construct: Bought recombinant protein; also called hu-CD26; soluble human CD26
T29 sequence (P27487 29-766 limits assumed): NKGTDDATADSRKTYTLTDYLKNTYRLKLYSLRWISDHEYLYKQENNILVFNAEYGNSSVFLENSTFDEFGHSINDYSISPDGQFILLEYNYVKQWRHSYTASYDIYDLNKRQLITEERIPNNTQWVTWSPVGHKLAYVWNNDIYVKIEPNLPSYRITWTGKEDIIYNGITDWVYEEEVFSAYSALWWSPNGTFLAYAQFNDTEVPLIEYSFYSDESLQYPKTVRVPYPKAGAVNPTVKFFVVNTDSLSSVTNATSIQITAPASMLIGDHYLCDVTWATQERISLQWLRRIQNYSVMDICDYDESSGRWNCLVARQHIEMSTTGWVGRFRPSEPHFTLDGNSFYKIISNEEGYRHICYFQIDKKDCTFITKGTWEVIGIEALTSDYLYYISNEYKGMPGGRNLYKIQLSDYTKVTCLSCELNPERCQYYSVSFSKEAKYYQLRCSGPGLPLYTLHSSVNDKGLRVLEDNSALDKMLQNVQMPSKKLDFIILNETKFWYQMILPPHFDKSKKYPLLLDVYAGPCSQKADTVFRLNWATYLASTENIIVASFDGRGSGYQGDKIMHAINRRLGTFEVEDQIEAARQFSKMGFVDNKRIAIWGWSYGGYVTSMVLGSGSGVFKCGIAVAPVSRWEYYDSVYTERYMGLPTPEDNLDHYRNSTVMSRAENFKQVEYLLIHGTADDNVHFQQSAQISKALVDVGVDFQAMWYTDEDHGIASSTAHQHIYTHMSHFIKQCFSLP
Procedure: (§3) Fabs produced in E. coli as described below were diluted in PBS in a concentration of ˜0.5 μM for the assay. A typical recording included a 3 minute period of injection of the Fab followed by a period of 15 minutes of dissociation, and analysis was performed based on the raw data of the binding curves accordingly.

[31] = molecular target: T29, Purified recombinant human CD26 …; experiment: SPR (Biacore), CD26 preoccupied by the Fab; competitor 14D10 ascites
From the text: A specificity analysis of selected Fabs comprising pairs of variant VH and VL sequences was done. […] The analysis was done using Biacore® as described in Example 1.

[32] = molecular target: T29, Purified recombinant human CD26 …; experiment: SPR (Biacore), Fab
[33] = molecular target: T29, Purified recombinant human CD26 …; experiment: SPR (Biacore), Fab; remark: listed apart in the source
Procedure: as §3

[34] = molecular target: T29, Purified recombinant human CD26 …; experiment: SPR (Biacore), Fab; remark: listed apart in the source
Procedure: as §3
The CD26 binding partner was as shown below.

[35] = molecular target: T29, Purified recombinant human CD26 …; experiment: SPR (Biacore), Fab; remark: listed apart in the source

B1: rhuMAb 420 (antibody, human IgG1, V domains shown)
VH: EVQLVESGGGVKQPGETLRLTCTASGFSLSTYGVHWVRQAPGKGLEWVGVIWGDGRTDYDAAFMSRVTISKDTSKSTVYLQMNSLRAEDTAVYYCMRNRHDWFDYWGQGTTVTVSS
VL: EIEMTQSPSSLSVSAGERATISCSASQDIRNSLNWYQQKPGQAPRLLIYYSSNLHTGVPARFSGSGSGTDFTLTISRLEPEDVAIYYCQQSNKLPLTFGSGTKVEIKR
notes: X420 VH and X380 VL with human IgG1 and human kappa constant regions; also called X420 (IgG1)
In the case of B1, the “Mean Signal Value” [1] is reported as 0, the “Mean Signal Value” [2] is reported as 0 and the “Mean Signal Value” [3] is reported as 0. For the same binder, the “Mean Signal Value” [4] was 0, the “Mean Signal Value” [5] was 0 and the “Mean Signal Value” [6] was 0. For the same binder, the “Mean Signal Value” [7] was 0, the “Mean Signal Value” [8] was 0 and the “Mean Signal Value” [9] was 0. For the same binder, the “Mean Signal Value” [10] was 0, the “Mean Signal Value” [11] was 0 and the “Mean Signal Value” [12] was 0. The “Mean Signal Value” [13] was 0, the “Mean Signal Value” [14] was 0 and the “Mean Signal Value” [15] was 0. The “Mean Signal Value” [16] was 0, the “Mean Signal Value” [17] was 0 and the “Mean Signal Value” [18] was 0. For the same binder, the “Mean Signal Value” [19] was 0, the “Mean Signal Value” [20] was 0 and the “Mean Signal Value” [21] was 0. For the same binder, the “Mean Signal Value” [22] was 0, the “Mean Signal Value” [23] was 0 and the “Mean Signal Value” [24] was 0. For the same binder, the “Mean Signal Value” [25] was 0, the “Mean Signal Value” [26] was 0 and the “Mean Signal Value” [27] was 0. For the same binder, the “Mean Signal Value” [28] was 0, the “percent inhibition, MTT assay, Jurkat CD26+ cells, 0.05 ug/ml” value [29] was 3.7% and the “percent inhibition, MTT assay, Jurkat CD26+ cells, 0.25 ug/ml” value [29] was 9.6%. For the same binder, the “percent inhibition, MTT assay, Jurkat CD26+ cells, 0.5 ug/ml” value [29] was 9.2%, the “percent inhibition, MTT assay, Jurkat CD26+ cells, 2.5 ug/ml” value [29] was 16.6% and the “percent inhibition, MTT assay, Jurkat CD26+ cells, 5 ug/ml” value [29] was 15.9%.

B2: CM03 Fab X369 (Fab, V domains shown)
VH: QVKLQESGPGLVQPSQTLSITCTVSGFSLTTYGVHWVRQSPGKGLEWLGVIWGGGRTDYDAAFISRLSISKDNSKSQVFFKMNSLQANDTAIYYCVRNRHDWFDYWGQGTTVTVSS
VL: DIQMTQSPSSLSASLGDRVTITCSASQGIRNSLNWYQQKPDGAVKLLIYYSSNLHSGVPSRFSGSGSGTDFSLTISNLEPEDIATYYCQQSIKLPFTFGSGTKLEIK
notes: Recombinant Fab made in E. coli; also called CM03 X369; CM03 (X369)
In the case of B2, the Kd [30] is reported as 1.63 nM, the “percent decrease in binding of 14D10 to CD26” value [31] is reported as at least 80% and the Kd [32] is reported as 1.63 nM and 1.6 nM. For the same binder, the Kd [33] was 1.63 nM, the Kd [34] was 1.63 nM and the Kd [35] was 1.63 nM.
